This is an account of results in PMC10249358, “Elucidation of Short Linear Motif-Based Interactions of the FERM Domains of Ezrin, Radixin, Moesin, and Merlin” (Biochemistry, 2023).

Details in all cases: both partners purified
The target in assay [1] is T1, radixin FERM domain (as used in FP) (human, UniProt P35241 5-295).
T1 construct: human radixin FERM domain, amino acids 5-295, synthetic gene in pETM33; source: E. coli BL21(DE3), purified (GSH sepharose)
The assay can be described thus: fluorescence polarisation; direct binding: 5 nM FITC-labeled probe peptide titrated with FERM domain; 20 mM HEPES pH 7.4, 150 mM NaCl, 0.05% Tween-20, 3 mM DTT; quadratic equation for 1:1 binding.

Assay [2] concerns the target T2, moesin FERM domain (UniProt P26038 2-295).
T2 construct: moesin FERM domain from pGEX4T Moesin FERM; also called WT moesin; source: E. coli BL21(DE3), purified (GSH sepharose, thrombin cleavage on beads, benzamidine column, gel filtration); not shown: GST, N-terminal, cleaved
The assay is described as follows: fluorescence polarisation; competition: precomplex of FERM domain (2 x KD) and FITC-KIRREL3(637–652) probe, titrated with unlabeled peptide; constants printed as KD′; FP buffer. (Polarisation of emitted light reports the rotation of a fluorescent probe.)

Assay [3] addresses T3, ezrin FERM domain (as used in FP) (UniProt P15311 2-296).
T3 construct: ezrin FERM domain from pGEX4T1 Ezrin FERM; source: E. coli BL21(DE3), purified (GSH sepharose)
The description is as above.

Assay [4] addresses T1, radixin FERM domain (as used in FP). The assay is described as above.
Another assay has as its target T4, merlin FERM domain (human, UniProt P35240 22-312).
T4 construct: human merlin (NF2) FERM domain, amino acids 22-312, synthetic gene in pETM33; source: E. coli BL21(DE3), purified (GSH sepharose, HRV3C cleavage, reverse Ni-IMAC); not shown: His, N-terminal, cleaved; GST, N-terminal, cleaved
T4 sequence (looked up): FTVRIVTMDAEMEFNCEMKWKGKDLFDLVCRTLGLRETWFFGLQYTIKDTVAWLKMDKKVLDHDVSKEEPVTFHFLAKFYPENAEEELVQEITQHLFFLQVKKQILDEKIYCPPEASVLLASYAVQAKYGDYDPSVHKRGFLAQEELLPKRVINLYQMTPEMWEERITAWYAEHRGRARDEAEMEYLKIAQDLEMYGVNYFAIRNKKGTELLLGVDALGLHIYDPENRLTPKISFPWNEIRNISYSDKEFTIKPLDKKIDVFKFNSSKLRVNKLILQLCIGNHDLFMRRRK
The assay is described as follows: fluorescence polarisation; direct binding: 5 nM FITC-labeled probe peptide titrated with FERM domain; 20 mM HEPES pH 7.4, 150 mM NaCl, 0.05% Tween-20, 3 mM DTT; quadratic equation for 1:1 binding.

The target in assay [5] is T5, moesin FERM M285A/H288A (UniProt P26038 2-295, M285A | H288A).
T5 construct: moesin FERM domain from pGEX4T Moesin FERM, double mutant; tag removal is told for moesin FERM in FP in general; also called moesin FERM M285/H288A; source: E. coli BL21(DE3), purified; not shown: GST, N-terminal, cleaved
The description is as above.

Assay [6] addresses T6, moesin FERM K211A/I238A (UniProt P26038 2-295, K211A | I238A).
T6 construct: moesin FERM domain from pGEX4T Moesin FERM, double mutant; tag removal is told for moesin FERM in FP in general; also called moesin K211A/I238A; source: E. coli BL21(DE3), purified; not shown: GST, N-terminal, cleaved
Described as above.

The target of assay [7] is T2, moesin FERM domain. The assay is described as follows: fluorescence polarisation; competition: precomplex of moesin FERM and FITC-ZNF622 probe, titrated with unlabeled peptide; constants printed as KD′; FP buffer (for HIF1A the text names FITC-NOP53 as probe, the table's footnote FITC-ZNF622).
Assay [8] concerns the target T7, Moesin FERM M285A/H288A (human, UniProt P26038 2-295, M285A | H288A).
T7 construct: moesin (P26038) FERM domain from pGEX4T Moesin FERM (Addgene plasmid # 1163); also called moesin FERM domain (M285A and H288A); moesin FERM M285/H288A; source: E. coli BL21(DE3), purified (GSH sepharose, thrombin cleavage, HiTrap benzamidine)
The assay can be described thus: fluorescence polarisation; direct binding: FITC-labeled probe peptide (5 nM) titrated with a dilution series of moesin FERM domain; 20 mM HEPES, pH 7.4, 150 mM NaCl, 0.05% Tween-20, 3 mM DTT; quadratic equation for 1:1 binding.

Assay [9] has as its target T8, Moesin FERM K211A/I238A (human, UniProt P26038 2-295, K211A | I238A).
T8 construct: moesin (P26038) FERM domain from pGEX4T Moesin FERM (Addgene plasmid # 1163); also called moesin K211A/I238A; double mutant moesin FERM K211A/I238A; source: E. coli BL21(DE3), purified (GSH sepharose, thrombin cleavage, HiTrap benzamidine)
The description is as above.

No end group written: not given here. *: point of attachment. FITC = O=C1OC2(c3ccc(O)cc3Oc3cc(O)ccc32)c2ccc(NC(=S)*)cc21

T3 sequence (P15311 2-296): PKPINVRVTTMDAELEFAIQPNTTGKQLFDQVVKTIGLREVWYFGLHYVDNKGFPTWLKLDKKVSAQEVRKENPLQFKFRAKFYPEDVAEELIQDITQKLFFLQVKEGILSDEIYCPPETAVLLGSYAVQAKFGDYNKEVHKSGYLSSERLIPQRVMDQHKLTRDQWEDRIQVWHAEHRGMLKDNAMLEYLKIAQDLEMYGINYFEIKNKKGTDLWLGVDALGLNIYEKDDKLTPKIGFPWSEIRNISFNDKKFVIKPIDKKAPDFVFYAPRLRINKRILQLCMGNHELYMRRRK
T1 sequence (P35241 5-295): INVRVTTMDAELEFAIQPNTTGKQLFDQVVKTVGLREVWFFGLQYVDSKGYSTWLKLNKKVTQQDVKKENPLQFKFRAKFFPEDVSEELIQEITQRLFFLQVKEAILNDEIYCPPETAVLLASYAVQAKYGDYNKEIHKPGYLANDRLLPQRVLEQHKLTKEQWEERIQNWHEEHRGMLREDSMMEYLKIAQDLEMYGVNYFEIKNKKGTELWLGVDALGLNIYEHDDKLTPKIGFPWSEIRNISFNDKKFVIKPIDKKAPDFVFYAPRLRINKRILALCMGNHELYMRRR
T8 sequence (P26038 2-295 K211A/I238A): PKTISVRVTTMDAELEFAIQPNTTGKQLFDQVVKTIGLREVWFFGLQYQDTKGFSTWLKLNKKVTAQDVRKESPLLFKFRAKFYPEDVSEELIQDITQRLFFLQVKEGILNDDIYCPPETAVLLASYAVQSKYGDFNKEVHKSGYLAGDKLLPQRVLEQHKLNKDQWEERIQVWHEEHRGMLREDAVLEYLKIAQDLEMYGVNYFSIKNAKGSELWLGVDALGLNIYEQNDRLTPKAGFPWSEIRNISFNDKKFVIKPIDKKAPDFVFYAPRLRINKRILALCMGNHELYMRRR
T7 sequence (P26038 2-295 M285A/H288A): as the sequence (P26038 2-295 K211A/I238A) above, with A210K, A237I, M284A, H287A counted along it
T2 sequence (P26038 2-295): as the sequence (P26038 2-295 K211A/I238A) above, with A210K, A237I counted along it
T6 sequence (P26038 2-295 K211A/I238A): as the sequence (P26038 2-295 K211A/I238A) above
T5 sequence (P26038 2-295 M285A/H288A): as the sequence (P26038 2-295 K211A/I238A) above, with A210K, A237I, M284A, H287A counted along it

B1: FITC-FAM83G(111–126) peptide (peptide, UniProt A6ND36 111-126, looked up)
peptide: AEPLPSLEYWPQKSDR
modifications: also: FITC label (position not given here)
notes: FAM83G, human, residues 111-126; source: synthetic peptide (GeneCust)
Take B1: the binding result in assay [1] was “binds”.

B2: GCM2(274–289) peptide (peptide)
peptide: SYELANPGYTNSSPYP
notes: GCM2, human, residues 274-289; source: synthetic peptide (GeneCust)
Take B2: the values for the dissociation constant Kd (with moesin FERM domain [2]; in [3]; in assay [4]) were 38 ± 3 µM, 205 ± 11 µM and 85 ± 3 µM, respectively.

B3: PDCD6IP(853–868) peptide (peptide)
peptide: SYPFPQPPQQSYYPQQ
notes: PDCD6IP, human, residues 853-868; source: synthetic peptide (GeneCust)
In the case of B3, the Kd with moesin FERM domain [2] turned out to be 35.2 ± 0.2 µM.

B4: FITC-ZNF622(341–356) peptide (peptide, UniProt Q969S3 341-356, looked up)
peptide: LEFADFYDFRSSYPDH
modifications: not fully specified (N-terminus); also: FITC label (position not given here)
notes: also called FITC-ZNZ622; source: synthetic peptide (GeneCust)
Regarding B4, the binding result (with merlin FERM domain; in assay [1]) was “binds” each time.

B5: RIMS1(1405–1420) peptide (peptide)
peptide: MYTLEHNDGSQSDTAV
notes: RIMS1, human, residues 1405-1420; source: synthetic peptide (GeneCust)
Molecule B5 yielded a dissociation constant (Kd) with moesin FERM domain [2] of 564 ± 5 µM.

B6: FITC-LATS1(73–88) peptide (peptide)
peptide: THHKALQEIRNSLLPF
modifications: also: FITC label, position not given here
notes: LATS1, human, residues 73-88; also called LATS(73–88); source: synthetic peptide (GeneCust)
B6: the binding result (with merlin FERM domain; in assay [1]) was “binds” in each case.

B7: FITC-EBP50(348–358) peptide (peptide, UniProt O14745 348-358, looked up)
peptide: WSKKNELFSNL
modifications: also: FITC label, position not given here
notes: source: synthetic peptide (GeneCust)
As to B7, the binding result (with merlin FERM domain; in [1]; in the assay with moesin FERM M285A/H288A [5]; in the assay with moesin FERM K211A/I238A [6]) was “binds” throughout.

B8: FITC-KIRREL3(637–652) peptide (peptide, UniProt Q8IZU9 637-652, looked up)
peptide: YYSVNTFKEHHSTPTI
modifications: also: FITC label, position not given here
notes: as for B7
On to B8, for which the binding result in [1] is listed as “binds”.

B9: ICAM3(516–531) peptide (peptide)
peptide: SGSYHVREESTYLPLT
notes: ICAM3, human, residues 516-531; source: synthetic peptide (GeneCust)
Molecule B9 registered a Kd in the assay with moesin FERM domain [2] of 113 ± 3 µM.

B10: LATS1(421–436) peptide (peptide)
peptide: LYNISVPGLQTNWPQS
notes: LATS1, human, residues 421-436; source: synthetic peptide (GeneCust)
On to B10, for which the Kd in the assay with moesin FERM domain [2] was determined as 149 ± 5 µM.

B11: RRBP1(1365–1380) peptide (peptide)
peptide: RAATRLQELLKTTQEQ
notes: RRBP1, human, residues 1365-1380; also called RRBP1 peptide; source: synthetic peptide (GeneCust)
Turning to B11, the Kd with merlin FERM domain was 9.7 ± 0.8 µM.

B12: CAMK2B(13–28) peptide (peptide)
peptide: EYQLYEDIGKGAFSVV
notes: CAMK2B, human, residues 13-28; source: synthetic peptide (GeneCust)
Regarding B12, the dissociation constant Kd in the assay with moesin FERM domain [2] was found to be 96 ± 4 µM; in assay [3] it was 26 ± 0.6 µM; in assay [4] it was 6.8 ± 0.4 µM.

B13: FITC-NOP53(192–207) peptide (peptide)
peptide: FYDLWASDNPLDRPLV
modifications: also: FITC label, position not given here
notes: NOP53, human, residues 192-207; source: synthetic peptide (GeneCust)
As for B13, the binding result (with merlin FERM domain; in assay [1]) was “binds” in each case.

B14: BOC(1000–1015) peptide (peptide)
peptide: LYTLPDDSTHQLLQPH
notes: BOC, human, residues 1000-1015; source: synthetic peptide (GeneCust)
On to B14, for which the dissociation constant (Kd) in the assay with moesin FERM domain [2] worked out at 18 ± 1 µM; in [3], 8 ± 0.1 µM; in assay [4], 17 ± 2 µM.

B15: HIF1A(37–52) peptide (peptide)
peptide: FYELAHQLPLPHNVSS
notes: HIF1A, human, residues 37-52; source: synthetic peptide (GeneCust)
In the case of B15, the equilibrium dissociation constant (Kd) with moesin FERM domain [7] worked out at 3 ± 0.4 µM.

B16: RORA(185–200) peptide (peptide)
peptide: TYNISANGLTELHDDL
notes: RORA, human, residues 185-200; source: synthetic peptide (GeneCust)
B16 yielded a dissociation constant Kd in the assay with moesin FERM domain [2] of 134 ± 3 µM.

B17: FITC-EBP50 343-358 peptide (peptide)
peptide: {FITC}-APQMDWSKKNELFSNL-OH
modifications: not fully specified
notes: also called NHERF1; source: synthetic peptide (GeneCust)
In the case of B17, the Kd in the assay with Moesin FERM M285A/H288A [8] was found to be 3.1 ± 0.2 µM; in the assay with Moesin FERM K211A/I238A [9] it was 114 ± 7 µM.

B18: FITC-LATS1 73-88 peptide (peptide)
peptide: THHKALQEIRNSLLPF
modifications: also: FITC label, position not given here
notes: LATS1, residues 73-88; source: synthetic peptide (GeneCust)
Take B18: the Kd in the assay with Moesin FERM M285A/H288A [8] was determined as 1.3 ± 0.1 µM; with Moesin FERM K211A/I238A [9], 7.4 ± 0.5 µM.

B19: FITC-TBX4 428-443 peptide (peptide)
peptide: SYSVQTMETVPYQPFP
modifications: also: FITC label, position not given here
notes: TBX4 (T-box transcription factor TBX4), residues 428-443; source: synthetic peptide (GeneCust)
Regarding B19, the equilibrium dissociation constant (Kd) with Moesin FERM M285A/H288A [8] was found to be 6.9 ± 0.4 µM; with Moesin FERM K211A/I238A [9], 2.17 ± 0.31 µM.

B20: FITC-ZNF622 341-356 peptide (peptide)
peptide: LEFADFYDFRSSYPDH
modifications: also: FITC label, position not given here
notes: as for B7
As to B20, the Kd came to 1.3 ± 0.1 µM with Moesin FERM M285A/H288A [8] and 46 ± 2 µM in the assay with Moesin FERM K211A/I238A [9].

B21: FITC-NOP53 192-207 peptide (peptide)
peptide: FYDLWASDNPLDRPLV
modifications: also: FITC label, position not given here
notes: NOP53, residues 192-207; source: synthetic peptide (GeneCust)
As for B21, the figures for the equilibrium dissociation constant (Kd) with Moesin FERM M285A/H288A [8] and with Moesin FERM K211A/I238A [9] were 2.2 ± 0.1 µM and 42 ± 1 µM, respectively.

B22: FITC-KIRREL3 637-652 peptide (peptide)
peptide: YYSVNTFKEHHSTPTI
modifications: also: FITC label, position not given here
notes: as for B7
For B22, the Kd is 0.84 ± 0.05 µM with Moesin FERM M285A/H288A [8] and 0.17 ± 0.02 µM with Moesin FERM K211A/I238A [9].

B23: FITC-TBX4(428–443) peptide (peptide, UniProt P57082 428-443, looked up)
peptide: SYSVQTMETVPYQPFP
modifications: also: FITC label, position not given here
notes: T-box transcription factor TBX4, human, residues 428-443; source: synthetic peptide (GeneCust)
Consider B23, for which the binding result in [1] was “binds”.

B24: MISP(595–610) peptide (peptide)
peptide: ITGSYSVSESPFFSPI
notes: also called MISP3 peptide; source: synthetic peptide (GeneCust)
B24 had a dissociation constant (Kd) in the assay with moesin FERM domain [2] of 2.3 ± 0.1 µM.

A word on the Kd: it is the free concentration of one partner at which half of the binding sites on the other are occupied at equilibrium, for simple one-to-one binding. Read a low Kd as a tighter complex.
